Data on 3 molecules can be found in patent US20220145339A1, “METHOD FOR PREPARATION OF PRIMARY AMINE COMPOUNDS” (Max-Planck-Gesellschaft zur Förderung der Wissenschaften …, priority 2018, published 2022).

For data set [1] the following is noted: aqueous solution, hydrolyzes to oxaloacetate; calculated from data of Mortarino et al., 1996; cited from earlier work.
Data set [2] concerns the molecule itself. Kind of data set: X-ray crystal structure, self-association (homodimer).
Data set [3] in a line: ISRed enzyme assay coupled with BHAD, NADH oxidation followed at 340 nm. The format is biochemical, Paracoccus denitrificans DSM 413. The method, then:
The enzyme assay to generate aspartate from β-hydroxyaspartate (catalyzed by the BHAD and ISRed enzymes) was performed at 30° C. in a total volume of 300 μl. The reaction mixture contained 100 mM potassium phosphate pH 7.5, 1 mM BHA, 0.2 mM NADH, 0.57, 2.85, 5.7 or 11.4 μg BHAD enzyme and 0.57 μg ISRed enzyme. The oxidation of NADH was followed at 340 nm on a Cary 60 UV-Vis photospectrometer (Agilent) in quartz cuvettes with a pathlength of 10 mm (Hellma Analytics). BHA (=(2R,3S)-β-hydroxyaspartate) was custom-synthesized by the company NewChem (Newcastle upon Tyne, United Kingdom), and was determined to be >95% pure by NMR analysis.
The enzyme assay to determine the initial reaction velocity of the ISRed enzymes was performed by incubating BHA and the required cofactor NADH together with a fixed amount of the ISRed enzyme and varying amounts of the BHAD enzyme. The initial velocity depends on the amount of the BHAD enzyme present in the reaction mixture, and therefore on the amount of iminosuccinate that is produced by the BHAD enzyme and is available to the ISRed enzyme, as illustrated in FIG. 6. The initial reaction velocity of the ISRed enzyme approaches a maximum in a Michaelis-Menten kinetic fit. The preliminary vmax of the ISRed enzyme determined by this method is 270±10 U mg^−1.

Turning to `N=C(CC(=O)O)C(=O)O` [iminosuccinate], the t1/2 in data set [1] is recorded as 1.48 s.

B1: iminosuccinate reductase from Paracoccus denitrificans DSM 413 (enzyme)
chain: MLVVAEKEIAGLMTPEAAFEAIEAVFASMARRKAYNFPVVREAIGHEDALYGFKGGFDASALVLGLKAGGYWPNNQKHNLINHQSTVFLFDPDTGRVSAAVGGNLLTALRTAAASAVSIKYLAPKGAKVLGMIGAGHQSAFQMRAAANVHRFEKVIGWNPHPEMLSRLADTAAELGLPFEAVELDRLGAEADVIVSITSSFSPLLMNEHVKGPTHIAAMGTDTKGKQELDPALVARARIFTDEVAQSVSIGECQHAIAAGLIREDQVGELGAVVAGDDPGRGDAEVTIFDGTGVGLQDLAVAQAVVELAKHKGVAQEVEI
notes: Recombinant enzyme expressed in E. coli BL21 AI from pET16b and purified on Ni-NTA; It was crystallised, soaked with NAD+, and is described as a homodimer (PDB ID 6QKH); also called ISRed; IRed; not shown: N-terminal His tag and Factor Xa site from vector pET16b
As for B1, the binding result in data set [2] was “binds”.

B2: ISRed: imine reductase enzyme from Paracoccus denitrificans DSM 413, amino acid sequence SEQ ID NO: 434, expressed in E. coli (protein)
chain: B1 chain
modifications: Paracoccus denitrificans DSM 413
For the molecule B2, in data set [3] (1 mM BHA, 0.2 mM NADH, BHAD and ISRed enzymes, 30° C., potassium phosphate pH 7.5), the reaction catalyzed result is given as “catalyzes the conversion of iminosuccinate into L-aspartate”. Also, the vmax in data set [3] (iminosuccinate synthesized in situ from BHA with varying amounts of BHAD enzyme, cofactor NADH, Michaelis-Menten fit, preliminary, n=1) turned out to be 270±10 U mg^−1.
